Data on nine molecules can be found in paper PMC4544033, “Real-time analysis of epithelial-mesenchymal transition using fluorescent single-domain antibodies” (Scientific Reports, 2015).

The term Kd denotes a measure of binding affinity in units of concentration. Read a high Kd as a looser complex. As usually defined, the koff is the rate constant with which the complex falls apart. Usually kon stands for the rate constant with which the complex forms. A higher kon goes with faster complex formation.

Test [1] addresses T1, endogenous vimentin (MDCK cells) (Canis lupus familiaris, UniProt A0A8C0N8E3).
T1 construct: vimentin, endogenous in MDCK cells; source: endogenous, MDCK lysate; fixed MDCK cells
Description: pull-down; nanobodies covalently coupled to agarose (NHS-Sepharose) beads incubated with soluble protein fractions of cell lines (HeLa, MDCK, A549 or HEK293T), 16 h at 4 °C; immunoblot with anti-vimentin IgG. The following applies: one partner purified.

Test [2] addresses T2, vimentin rod domain fused to GFP (Homo sapiens, UniProt P08670).
T2 construct: vimentin central helical rod domain, aa 96-407; also called central helical rod domain (aa 96-407); source: HEK293T, transfected, in lysate
Description: pull-down; immobilized nanobodies incubated with lysates of HEK293T cells transfected with GFP fusions of vimentin or its domains; immunoblot with anti-GFP antibody. The following applies: one partner purified. On the technique in general: In western blotting, separated proteins are transferred to a membrane and probed.

In test [3] the target is endogenous vimentin (human cell lines) (human (endogenous in HeLa, HEK293T, A549, MDA-MB-231)) (UniProt P08670).
For another test, the target named is T3, purified vimentin-His6 (Homo sapiens, UniProt P08670).
T3 construct: vimentin, full length; Antigen of immunisation, biopanning and phage ELISA; details in the Supplementary methods; also called recombinant vimentin; full-length vimentin
Description: ELISA; solid-phase phage ELISA of 47 single clones after two cycles of biopanning against full-length vimentin. The settings on record: one partner purified. (In general: In an ELISA, binding on a coated surface is turned into a signal by an enzyme label.)

In test [4] the target is T1, endogenous vimentin (MDCK cells). Description: immunostaining of cells or tissue; fixed (4% PFA), permeabilised MDCK, HeLa and MDA-MB-231 cells; ATTO488-labeled nanobodies 10 ug/ml in 3% BSA in PBS, 16 h at 4 °C; compared or co-stained with an anti-vimentin IgG. The settings on record: one partner purified.
A further test concerns the target T4, GFP-labeled vimentin (Homo sapiens, UniProt P08670).
T4 construct: vimentin, full length; Expression constructs are described in the Supplementary methods; also called GFP-VIM; eGFP-Vimentin; source: HEK293T, transfected, in lysate (soluble protein fraction)
Description: BLI; fiber optic sensors with immobilized VB3 and VB6; serial dilutions of the soluble protein fraction of HEK293T cells comprising GFP-VIM or GFP. The settings on record: one partner purified.

Changes are numbered by the printed parent chain.

T3 sequence (P08670 whole entry): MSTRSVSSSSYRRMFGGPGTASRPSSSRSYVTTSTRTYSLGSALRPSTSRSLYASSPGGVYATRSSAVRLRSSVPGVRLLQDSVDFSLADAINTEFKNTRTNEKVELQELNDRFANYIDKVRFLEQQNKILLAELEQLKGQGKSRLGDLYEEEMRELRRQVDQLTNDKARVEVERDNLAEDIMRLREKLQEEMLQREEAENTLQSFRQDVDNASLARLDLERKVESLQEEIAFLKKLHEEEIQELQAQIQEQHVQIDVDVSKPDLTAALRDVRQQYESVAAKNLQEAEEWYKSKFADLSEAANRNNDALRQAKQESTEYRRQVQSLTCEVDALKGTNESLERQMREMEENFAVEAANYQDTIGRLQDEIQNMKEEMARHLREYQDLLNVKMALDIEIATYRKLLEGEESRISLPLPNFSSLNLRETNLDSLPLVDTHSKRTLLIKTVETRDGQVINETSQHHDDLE
T4 sequence (P08670 whole entry): as above
T1 sequence (A0A8C0N8E3 whole entry): as the sequence (P08670 whole entry) above, with A21G, S27T, V60A, N201S, E239D, E251D, V258M, T317N, S412A counted along it
Chain of endogenous vimentin (human cell lines) (human (endogenous in HeLa, HEK293T, A549, MDA-MB-231)) (P08670 whole entry): as the sequence (P08670 whole entry) above
T2 sequence (P08670 96-407): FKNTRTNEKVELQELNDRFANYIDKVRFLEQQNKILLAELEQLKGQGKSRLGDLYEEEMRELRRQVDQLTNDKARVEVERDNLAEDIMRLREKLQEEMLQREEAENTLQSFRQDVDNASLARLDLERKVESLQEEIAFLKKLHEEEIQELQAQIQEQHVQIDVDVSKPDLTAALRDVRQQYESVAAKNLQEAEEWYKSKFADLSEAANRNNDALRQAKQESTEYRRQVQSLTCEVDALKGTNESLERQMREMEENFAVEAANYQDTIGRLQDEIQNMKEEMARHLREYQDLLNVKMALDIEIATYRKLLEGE

B1: VB3 nanobody (VHH)
VHH: QVQLVESGGGSVQAGDSLRLSCAASGNTFSIKVMGWYRQAPGKQRELVAVSTNSGASVNYANSVKGRFTISIDSVKKTTYLQMNSLKPEDTAVYFCNAYDGRYEDYYGQGTQVTVSS
notes: By its hallmark residues derived from a heavy-chain-only antibody; Used immobilised on BLI sensors and covalently coupled to NHS-Sepharose; Construct and purification details are in the Supplementary methods; also called Nb VB3; source: E. coli, recombinantly expressed and purified
In the case of B1, the binding result in test [1] and in test [2] was “binds” each time. Moreover, in test [3], the FRAP in HeLa cells: half time of fluorescence recovery of the chromobody amounted to 4.3 s. Also, the FRAP in HeLa cells: total fluorescence recovery of the chromobody in the photobleached region in test [3] stood at 58.4%.

B2: VG1, phage-displayed clone (VHH)
VHH: B1 VHH with Q1D, S11L, D16G, R19K, A23K, N27S, F29Y, K32H, M34Y
notes: derived from a heavy-chain-only antibody
Take B2: in the test with purified vimentin-His6, the binding result is given as “binds”.

B3: VF6, phage-displayed clone (VHH)
VHH: B1 VHH with Q1D, S11L, Q13E, D16G, N27R, I31P, K32Y, K43N
notes: as for B2
Turning to B3, the binding result with purified vimentin-His6 is given as “binds”.

B4: VB6 nanobody coupled to ATTO488 (VHH)
VHH: QVQLVESGGGLVQSGGSLTLTCAASGFTFSAASMRWVRQVPGKGLEWVATIDGTGANSYYSESAKGRFTISRDNARNTLRLQMNNLKPDDTAVYYCANFGRNYWGKGTQVTVSS
notes: also called VB6_(ATTO488); source: E. coli, purified, chemically coupled to ATTO488 NHS-ester
Turning to B4, in test [4], the binding result is given as “binds”.

B5: VB6 nanobody (VHH)
VHH: B4 VHH
notes: Single-domain antibody; Used immobilised on BLI sensors and covalently coupled to NHS-Sepharose; Construct details are in the Supplementary methods; also called Nb VB6; source: E. coli, recombinantly expressed and purified
In the test with GFP-labeled vimentin, B5 yielded a Kd of 37 nM, a koff of 0.0176 s⁻¹ and a kon of 475000 M⁻¹ s⁻¹.

B6: VH3, phage-displayed clone (VHH)
VHH: QVQLVESGGGLAQPGGSLRLSCAASGFTFSSYAMSWVRQAPGKGLEWVSGITSGGSSTYYASSVKGRFTISRDNTKNTLYLQMDNLKSDDTAVYYCAKAWGSASSSRGQGTQVTVSS
notes: VH domain derived from a conventional IgG by its hallmark residues
In the case of B6, the binding result in the test with purified vimentin-His6 is reported as “binds”.

B7: VE3, phage-displayed clone (VHH)
VHH: QVQLVESGGGLVQPGGSLRLSCAASGSTFRIRTMGWYRQAPGKQRELVAVSTNSGGSVNYADSVKGRFTISIDSVKKTTDLQMNSLKPEDTAVYYCNAYDSDYLDYYGQGTQVTVSS
notes: as for B2
Turning to B7, the binding result with purified vimentin-His6 is listed as “binds”.

B8: VG4, phage-displayed clone (VHH)
VHH: QVQLVESGGGLVQPGGSLRLSCVASGFTFSDYWMYWVRQAPGKGLEWVSGISPGGTTTYADSVKGRFTTSRDNTRNTLYLQMNELKPEDTAVYYCAKDLNWVDSDDYWGRGTQVTVSS
notes: as for B6
As to B8, the binding result with purified vimentin-His6 is recorded as “binds”.

B9: VC4, phage-displayed clone (VHH)
VHH: QVQLVESGGGLVQPGGSLRLSCLASGFSFGSYRMHWVRQAPGKGLEWVSGISSGGGTTYYADSVKGRFTISRDNAKNMLYLQMNNLQPEDTAVYYCLGGDWADWGQGTQVTVSS
notes: as for B6
With B9, the binding result with purified vimentin-His6 is listed as “binds”.
